Drawing on paper PMC10285447, this text covers EC50 for one substance.

For assay [1], the target named is H4-IgM-P (pentameric H4 IgM) (human) (UniProt P01591). Nature of the assay: ELISA. (In general: In an ELISA, binding on a coated surface is turned into a signal by an enzyme label.)
The target in assay [2] is P5C3-IgM-P (pentameric P5C3 IgM) (human) (UniProt P01591). The experiment in a line: ELISA; […] (from 500 ng/mL with P5C3, […].

Broadly, the EC50 is the concentration at which the effect is half-maximal. For the substance “SARS-CoV-2 spike protein RBD (Wuhan strain), recombinant (from UniProt P0DTC2 319-541) (domain or fragment)”, the EC50 in assay [1] amounted to 0.169 nM; in assay [2] it was 0.016 nM.
